Literature values, collected in article PMC9697831.
Read-outs that look alike come from different tables or passages of the source.

Experiments:
Kv1.3 (Homo sapiens) [1] = target: Kv1.3 (Homo sapiens) (UniProt P22001)
Kv1.3 (Homo sapiens) [2] = target: Kv1.3 (Homo sapiens) (UniProt P22001); remark: listed apart in the source

Kv1.3 (Homo sapiens), sequence (P22001 whole entry): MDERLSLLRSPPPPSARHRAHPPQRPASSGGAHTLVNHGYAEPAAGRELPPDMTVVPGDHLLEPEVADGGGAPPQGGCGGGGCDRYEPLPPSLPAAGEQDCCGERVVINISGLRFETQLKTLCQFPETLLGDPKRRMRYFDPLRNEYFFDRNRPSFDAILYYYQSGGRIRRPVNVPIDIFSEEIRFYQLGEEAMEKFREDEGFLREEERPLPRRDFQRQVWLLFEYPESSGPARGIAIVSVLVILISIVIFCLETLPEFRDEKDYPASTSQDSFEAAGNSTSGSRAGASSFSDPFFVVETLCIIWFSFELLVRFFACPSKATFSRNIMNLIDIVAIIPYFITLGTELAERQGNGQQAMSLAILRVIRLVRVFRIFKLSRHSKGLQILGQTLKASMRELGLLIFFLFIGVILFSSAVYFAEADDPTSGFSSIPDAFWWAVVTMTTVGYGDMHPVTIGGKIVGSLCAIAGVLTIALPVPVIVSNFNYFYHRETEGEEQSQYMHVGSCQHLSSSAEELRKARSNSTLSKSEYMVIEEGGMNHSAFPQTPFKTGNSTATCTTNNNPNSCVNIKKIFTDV
Ts6, sequence (P59936 23-62): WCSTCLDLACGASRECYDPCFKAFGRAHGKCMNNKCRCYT
Anuroctoxin, sequence (P0C166 whole entry): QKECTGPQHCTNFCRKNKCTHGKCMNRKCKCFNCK

| Substance | Kd (Kv1.3 (Homo sapiens) [1]) | Kd (Kv1.3 (Homo sapiens) [2]) |
| --- | --- | --- |
| Ts6 (from UniProt P59936) | 0.55 nM |  |
| Anuroctoxin (from UniProt P0C166) |  | 0.73 nM |
